From US20180071366A1
Numbered stars: 1 amine (or outer) side, 2 acyl side, 3 side chain; on linkers, the order of the positions; unused ones are H or OH. Bridge positions count the residues as written; N and C are the ends. Square brackets hold non-standard residues; d marks the D form. * marks the point of attachment. C20 diacid = O=C(O)CCCCCCCCCCCCCCCCCCC(=O)*; γGlu = O=C(O)[C@H](CCC(=O)[*:2])N[*:1]; Hyp = O=C(O)[C@@H]1C[C@@H](O)CN1; NMeI = CC[C@H](C)[C@H](NC)C(=O)O; Aad = N[C@@H](CCCC(=O)O)C(=O)O; Orn = NCCC[C@H](N)C(=O)O; Sar = CNCC(=O)O

Experiments:
[1] = target: recombinant human calcitonin receptor (hCT-R) (human), P30988; assay: cell-based or functional assay
recombinant human calcitonin receptor (hCT-R) (human), P30988, sequence (P30988 25-474): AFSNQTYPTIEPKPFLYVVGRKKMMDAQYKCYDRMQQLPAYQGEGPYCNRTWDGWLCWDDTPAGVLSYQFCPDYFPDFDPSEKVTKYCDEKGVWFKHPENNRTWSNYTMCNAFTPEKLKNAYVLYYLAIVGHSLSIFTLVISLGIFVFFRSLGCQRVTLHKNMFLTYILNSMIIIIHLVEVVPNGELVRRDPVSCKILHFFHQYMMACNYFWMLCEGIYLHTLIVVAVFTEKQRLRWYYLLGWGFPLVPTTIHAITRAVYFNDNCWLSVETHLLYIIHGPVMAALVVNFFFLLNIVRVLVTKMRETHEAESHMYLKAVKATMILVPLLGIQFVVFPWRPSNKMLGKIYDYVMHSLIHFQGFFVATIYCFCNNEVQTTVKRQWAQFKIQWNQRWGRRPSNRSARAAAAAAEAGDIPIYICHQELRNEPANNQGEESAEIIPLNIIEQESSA

[2] = target: recombinant human amylin 3 receptor (hAMYR3) (human), P30988; assay: cell-based or functional assay
recombinant human amylin 3 receptor (hAMYR3) (human), P30988, sequence (P30988 25-474, chain 1 of 2): as the sequence (P30988 25-474) above
recombinant human amylin 3 receptor (hAMYR3) (human), P30988, sequence (O60896 24-148, chain 2 of 2, further chain): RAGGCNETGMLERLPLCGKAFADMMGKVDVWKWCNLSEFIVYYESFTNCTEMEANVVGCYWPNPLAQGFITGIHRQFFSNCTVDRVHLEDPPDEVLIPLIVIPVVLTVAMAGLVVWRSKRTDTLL

hCT-R EC50 [nM] (cAMP formation, 1321N1 cells expressing hCT-R) [1] | hAMYR3 EC50 [nM] (cAMP formation, 1321N1 cells expressing hAMYR3) [2] | Binder
0.327 nM | 0.011 nM | {C20 diacid-γGlu}-RDGTAT[Orn]ATERLAHFLQRF[Sar]A[NMeI]LSSTEVGSNT[Hyp]-NH2 (lactam 2-7; SMILES CC[C@H](C)[C@@H](C(=O)N[C@@H](CC(C)C)C(=O)N[C@@H](CO)C(=O)N[C@@H](CO)C(=O)N[C@H](C(=O)N[C@@H](CCC(=O)O)C(=O)N[C@H](C(=O)NCC(=O)N[C@@H](CO)C(=O)N[C@@H](CC(N)=O)C(=O)N[C@H](C(=O)N1C[C@H](O)C[C@H]1C(N)=O)[C@@H](C)O)C(C)C)[C@@H](C)O)N(C)C(=O)[C@H](C)NC(=O)CN(C)C(=O)[C@H](Cc1ccccc1)NC(=O)[C@H](CCCNC(=N)N)NC(=O)[C@H](CCC(N)=O)NC(=O)[C@H](CC(C)C)NC(=O)[C@H](Cc1ccccc1)NC(=O)[C@H](Cc1c[nH]cn1)NC(=O)[C@H](C)NC(=O)[C@H](CC(C)C)NC(=O)[C@H](CCCNC(=N)N)NC(=O)[C@H](CCC(=O)O)NC(=O)[C@@H](NC(=O)[C@H](C)NC(=O)[C@@H]1CCCNC(=O)C[C@H](NC(=O)[C@H](CCCNC(=N)N)NC(=O)CC[C@H](NC(=O)CCCCCCCCCCCCCCCCCCC(=O)O)C(=O)O)C(=O)NCC(=O)N[C@@H]([C@@H](C)O)C(=O)N[C@@H](C)C(=O)N[C@@H]([C@@H](C)O)C(=O)N1)[C@@H](C)O) [Compound 6]
0.075 nM | 0.031 nM | {C20 diacid-γGlu}-RCGTATCATERLA[Aad]FLQRSSF[Sar]A[NMeI]LSSTEVGSNT[Hyp]-NH2 (disulfide 2-7; SMILES CC[C@H](C)[C@@H](C(=O)N[C@@H](CC(C)C)C(=O)N[C@@H](CO)C(=O)N[C@@H](CO)C(=O)N[C@H](C(=O)N[C@@H](CCC(=O)O)C(=O)N[C@H](C(=O)NCC(=O)N[C@@H](CO)C(=O)N[C@@H](CC(N)=O)C(=O)N[C@H](C(=O)N1C[C@H](O)C[C@H]1C(N)=O)[C@@H](C)O)C(C)C)[C@@H](C)O)N(C)C(=O)[C@H](C)NC(=O)CN(C)C(=O)[C@H](Cc1ccccc1)NC(=O)[C@H](CO)NC(=O)[C@H](CO)NC(=O)[C@H](CCCNC(=N)N)NC(=O)[C@H](CCC(N)=O)NC(=O)[C@H](CC(C)C)NC(=O)[C@H](Cc1ccccc1)NC(=O)[C@H](CCCC(=O)O)NC(=O)[C@H](C)NC(=O)[C@H](CC(C)C)NC(=O)[C@H](CCCNC(=N)N)NC(=O)[C@H](CCC(=O)O)NC(=O)[C@@H](NC(=O)[C@H](C)NC(=O)[C@@H]1CSSC[C@H](NC(=O)[C@H](CCCNC(=N)N)NC(=O)CC[C@H](NC(=O)CCCCCCCCCCCCCCCCCCC(=O)O)C(=O)O)C(=O)NCC(=O)N[C@@H]([C@@H](C)O)C(=O)N[C@@H](C)C(=O)N[C@@H]([C@@H](C)O)C(=O)N1)[C@@H](C)O) [Ref. 4]
